Results on 4 molecules are retold here after US20200207841A1 (MIT, published 2020).

In assay [1] the target is T1, EDIII-DV2 (Dengue virus serotype 2 (DV2), UniProt P14337 581-673).
T1 construct: also called EDIII of DV2; EDIII-DVII
Put plainly: SPR.

Assay [2] has as its target T2, EDIII-DV1 (Dengue virus serotype 1 (DV1), UniProt P17763 581-673).
T2 construct: also called EDIII of DV1; EDIII-DVI
The assay is described as follows: SPR.

Assay [3] concerns the target T3, EDIII-DV3 (Dengue virus serotype 3 (DV3), UniProt Q6YMS3 579-671).
T3 construct: also called EDIII of DV3; EDIII-DVIII
Put plainly: SPR.

Assay [4] concerns the target T1, EDIII-DV2.
Assay [5] addresses T2, EDIII-DV1.
In assay [6] the target is T3, EDIII-DV3.
Assay [7] concerns the target T1, EDIII-DV2. Put plainly: SPR. The source holds these as a separate data set.
Assay [8] addresses T2, EDIII-DV1. The assay is described as follows: SPR. This is another data set of the same source.
For assay [9], the target named is T3, EDIII-DV3. The assay is described as follows: SPR. This is another data set of the same source.
The target of assay [10] is T4, DV2 (Dengue virus serotype 2, virus used in FRNT) (Dengue virus serotype 2 (DV2)). Put plainly: cell-based or functional assay.
Assay [11] concerns the target T5, DV1 (Dengue virus serotype 1, virus used in FRNT) (Dengue virus serotype 1 (DV1)). The assay is described as follows: cell-based or functional assay.
In assay [12] the target is T6, DV3 (Dengue virus serotype 3, virus used in FRNT) (Dengue virus serotype 3 (DV3)). The assay is described as follows: cell-based or functional assay.
In assay [13] the target is T1, EDIII-DV2. The assay is described as follows: competition ELISA.
Assay [14] concerns the target T2, EDIII-DV1. Put plainly: competition ELISA.
The target in assay [15] is T3, EDIII-DV3. Put plainly: competition ELISA.
In assay [16] the target is T4, DV2 (Dengue virus serotype 2, virus …). The assay is described as follows: cell-based or functional assay. This is another data set of the same source.
The target of assay [17] is DV4 (Dengue virus serotype 4, virus used in FRNT) (Dengue virus serotype 4 (DV4)). Put plainly: cell-based or functional assay.
The target in assay [18] is T5, DV1 (Dengue virus serotype 1, virus …). Put plainly: cell-based or functional assay. This is another data set of the same source.
Assay [19] concerns the target T6, DV3 (Dengue virus serotype 3, virus …). The assay is described as follows: cell-based or functional assay. The source holds these as a separate data set.
In assay [20] the target is T1, EDIII-DV2. This is another data set of the same source.
Assay [21] concerns the target T2, EDIII-DV1. This is another data set of the same source.
Assay [22] has as its target T3, EDIII-DV3. This is another data set of the same source.
The target of assay [23] is T1, EDIII-DV2. This is another data set of the same source.
Assay [24] has as its target T2, EDIII-DV1. This is another data set of the same source.
In assay [25] the target is T3, EDIII-DV3. The source holds these as a separate data set.
Assay [26] deals with T7, EDIII-DV4 (Dengue virus serotype 4 (DV4), UniProt P09866 580-672).
T7 construct: also called EDIII of DV4; DV4 EDIII
The assay is described as follows: calculated from KD, ΔG = RTln(KD) at 25° C.

For assay [27], the target named is T7, EDIII-DV4. Put plainly: competition ELISA.
The target of assay [28] is T7, EDIII-DV4.
The target of assay [29] is T7, EDIII-DV4. Put plainly: calculated from KD, relative to 4E11 WT.

Where two headings read alike, the source gives them in different places.

B1: 4E11 WT (antibody, V domains shown)
VH: VKLLEQSGAELVKPGASVRLSCTASGFNIKDTYMSWVKQRPEQGLEWIGRIDPANGDTKYDPKFQGKATITADTSSNTAYLHLSSLTSGDTAVYYCSRGWEGFAYWGQGTLVTVSA
VL: ELVMTQTPASLAVSLGQRATISCRASENVDRYGNSFMHWYQQKAGQPPKLLIYRASNLESGIPARFSGSGSRTDFTLTINPVEADDVATYFCQRSNEVPWTFGGGTKLEIKR
notes: also called wt 4E11; mAb 4E11
As to B1, the Kd in assay [1] is 6.2 nM; in assay [2], 0.5 nM; in assay [3], 7.58 nM; in assay [4], 5.2 nM; in assay [5], 0.328 nM; in assay [6] it was 21.8 nM. Also, the Kd in [13] is 5.2 nM; in [14] it was 0.328 nM; in assay [15], 21.8 nM. The kon is 1.98e+06 M⁻¹ s⁻¹ in [7], 1.11e+06 M⁻¹ s⁻¹ in assay [8] and 1.34e+06 M⁻¹ s⁻¹ in assay [9]. Further, the koff in assay [8] is 0.000551 s⁻¹; in [9] it was 0.0102 s⁻¹. In addition, the results for the “IC50 (read off the curve): neutralisation, relative infectivity against [4E11]” value in assay [10], in assay [11] and in assay [12] were ~0.03 µg/mL, ~0.06 µg/mL and ~0.5 µg/mL, respectively.

B2: 4E5A (antibody, V domains shown)
VH: VKLLEQSGAELVKPGASVRLSCTASGFNIKDTYMSWVKQRPEQGLEWIGRIDPENGDTKYDPKFQGKATITADTSSNTAYLHLSSLTSGDTAVYYCSRGWEGFAYWGQGTLVTVSA
VL: ELVMTQTPASLAVSLGQRATISCRASENVDKYGNSFMHWYQQKAGQPPKLLIYRASELQWGIPARFSGSGSRTDFTLTINPVEADDVATYFCQRSNEVPWTFGGGTKLEIKR
notes: also called 4E11-5A; E45A
On to B2, for which the “FRNT50 (focus reduction neutralization test)” value in [16] was 0.028 µg/mL; in assay [17], 4 µg/mL; in assay [18] it was 0.19 µg/mL; in assay [19] it was 0.77 µg/mL. In addition, the equilibrium dissociation constant (Kd) in [20] is < 0.3 nM; in assay [21] it was 0.368 nM; in assay [22] it was 24.2 nM; in assay [23], 0.129 nM; in assay [24], 0.217 nM; in [25], 2.72 nM.

B3: 4E11 VH-A55E (antibody, V domains shown)
VH: VKLLEQSGAELVKPGASVRLSCTASGFNIKDTYMSWVKQRPEQGLEWIGRIDPENGDTKYDPKFQGKATITADTSSNTAYLHLSSLTSGDTAVYYCSRGWEGFAYWGQGTLVTVSA
VL: ELVMTQTPASLAVSLGQRATISCRASENVDRYGNSFMHWYQQKAGQPPKLLIYRASNLESGIPARFSGSGSRTDFTLTINPVEADDVATYFCQRSNEVPWTFGGGTKLEIKR
With B3, the ΔG in assay [26] was -7.29 kcal/mol. The “fold affinity enhancement relative to 4E11 WT” value in [27] worked out at 9.2 fold. Also, the Kd in [28] amounted to 4440 nM. In assay [29], the “ΔΔG (ΔGmutant - ΔGWT)” value was -1.31 kcal/mol.

B4: 4E11 VL-N57E (antibody, V domains shown)
VH: VKLLEQSGAELVKPGASVRLSCTASGFNIKDTYMSWVKQRPEQGLEWIGRIDPANGDTKYDPKFQGKATITADTSSNTAYLHLSSLTSGDTAVYYCSRGWEGFAYWGQGTLVTVSA
VL: ELVMTQTPASLAVSLGQRATISCRASENVDRYGNSFMHWYQQKAGQPPKLLIYRASELESGIPARFSGSGSRTDFTLTINPVEADDVATYFCQRSNEVPWTFGGGTKLEIKR
For the molecule B4, in assay [26], the ΔG was -6.92 kcal/mol. The molecule further had a Kd in assay [28] of 8410 nM. Further, in assay [29], the “ΔΔG (ΔGmutant - ΔGWT)” value is -0.93 kcal/mol.
